Laboratory results taken from PMC7000712, “A kinetic method for measuring agonist efficacy and ligand bias using high resolution biosensors and a kinetic data analysis framework” (Scientific Reports, 2020).

Experiments:
[1] = target: T1, angiotensin AT1 receptor (Homo sapiens, UniProt P30556); assay: Arrestin-3 (β-arrestin2) mNeonGreen biosensor recruitment, AT1 receptor, HEK 293 T cells (time course); assay type: cell-based
T1 construct: The unmodified receptor can be used, providing estimates of authentic rather than forced coupling to arrestin; host or cells: HEK 293 T cells, BacMam transduction, CMV promoter
T1 sequence (P30556 1-359): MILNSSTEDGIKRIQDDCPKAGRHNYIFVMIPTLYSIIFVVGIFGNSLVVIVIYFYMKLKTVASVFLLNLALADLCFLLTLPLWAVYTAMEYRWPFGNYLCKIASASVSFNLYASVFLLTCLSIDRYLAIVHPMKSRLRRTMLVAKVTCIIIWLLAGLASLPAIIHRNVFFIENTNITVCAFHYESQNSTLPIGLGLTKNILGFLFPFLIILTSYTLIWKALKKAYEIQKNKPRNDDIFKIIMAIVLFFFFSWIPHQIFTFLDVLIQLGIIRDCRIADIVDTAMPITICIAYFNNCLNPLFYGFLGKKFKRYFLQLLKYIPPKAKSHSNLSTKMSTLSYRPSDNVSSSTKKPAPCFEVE
Text: We and others have developed fluorescent biosensors in which intrinsically fluorescent protein sensors have been incorporated. (Three examples used in this study are R-GECO[22] for Ca^2+, Downward DAG for DAG and cADDis for cAMP[21]). The protein sensors have been engineered to be conformationally-sensitive, such that interaction with the signaling molecule of interest changes the optical properties, enabling the interaction to be detected as a change of fluorescence intensity. Since the proteins are intrinsically fluorescent, no chemical tagging or substrate addition is necessary to generate the optical signal. Here this approach was used to develop a biosensor of receptor-arrestin interaction (Fig. 1a).
We used the kτ method to quantify the kinetics of arrestin recruitment of five AT1 receptor ligands with known varying degrees of arrestin recruitment and bias. The method for quantifying kτ is as follows (illustrated schematically in Supplementary Fig. S5). […] From these fits the fitted parameter values were taken for Plateau and kobs. These values were then multiplied together. […] The data were then fit to the sigmoid curve equation, for example the “log(agonist) vs. response–Variable slope” equation in Prism[46]. From this fit kτ was obtained - it is the value of the asymptote. More precisely, kτ is the Plateau x kobs value for a maximally-effective concentration of ligand.
All that is required is a time course of response measurement at a single, maximally-stimulating concentration of ligand (maximally-stimulating at all time points). […] The data were fit to the association exponential equation to determine Plateau and kobs. kτ was then calculated - it is the Plateau multiplied by kobs for a maximally-stimulating concentration of ligand, as explained in the Appendix.
The first biosensors that positioned analyte binding domains in this position used a circularly permuted version of the fluorescent protein, and include the GCaMP and GECO Ca^2+ sensors, the upward and downward DAG sensors, and the caDDis cAMP sensor[21],[22]. More recently it has become clearer that if the termini of the analyte binding domain are close to one another, then the entire binding domain can be inserted into the 7th stave of the fluorescent protein without having to circularly permute the fluorescent protein[60].
HEK 293 T cells were cultured in Eagle’s minimum essential media (EMEM) supplemented with 10% fetal bovine serum (FBS) and penicillin-streptomycin at 37 °C in 5% CO2. For BacMam transduction, cells were resuspended in media at a density of 52,000 cells per 100 μL. […] For each experiment 4.24 × 10^8 viral genes of arrestin virus were added to each well. For multiplex experiments, 4.79 × 10^8 viral genes of the Red DAG sensor or 6.18 × 10^8. Viral genes of the Red cADDis (cAMP) sensor were added with the arrestin sensor. For experiments with the R-GECO sensor, 8.46 × 10^8 viral genes were added to each well. The viruses carrying the AT1 and V2 receptors were added such that 2.12 × 10^8 and 3.04 × 10^8 viral genes went into each well, respectively. For the β2-adrenoceptor experiment, 4.28 × 10^8 viral genes for the receptor and 2.13 × 10^8 viral genes of GPCR kinase 2 were added to each well.

[2] = target: T1, angiotensin AT1 receptor; assay: Ca^2+ mobilization, R-GECO sensor, AT1 receptor, HEK 293 T cells; assay type: cell-based; conditions: 32 μM; mean kτ of ligand divided by that for AngII
Text: Biased agonism quantification relates the capacity of a ligand to activate one pathway relative to one or more other pathways[9]–[12]. Numerous methods and scales have been developed and successfully applied[8],[47],[53]–[59]. One approach is to compare ligand efficacy, i.e. the capacity of the agonist-occupied receptor to generate the signal. kτ provides such an efficacy value, being the initial rate of signal generation by the agonist-occupied receptor. Here kτ is used to assess signaling bias of the AT1 receptor ligands described above. […] In this study, G-protein signaling and arrestin recruitment was measured using the same fluorescent biosensor assay modality, enabling near-identical conditions to be employed in comparing the pathways. The Gq pathway was quantified at the level of diacylglycerol using the Red Downward DAG sensor[21] (Fig. 5b), and, one step downstream, Ca^2+ mobilization measured using the R-GECO sensor[22] […]
HEK 293 T cells were cultured in Eagle’s minimum essential media (EMEM) supplemented with 10% fetal bovine serum (FBS) and penicillin-streptomycin at 37 °C in 5% CO2. […] Thirty minutes prior to fluorescence plate reader or imaging experiments, the media in each well was replaced with 150 μL of Dulbecco’s phosphate buffered saline (DPBS) supplemented with Ca^2+ (0.9 mM) and Mg^2+ (0.5 mM). […]

[3] = tested on: β2-adrenoceptor; assay: Arrestin sensor response via the β2-adrenoceptor; assay type: cell-based; conditions: 10 μM isoproterenol; cells also transduced with GPCR kinase 2; n = 4; Biotek Synergy Mx
Description: HEK 293 T cells were cultured in Eagle’s minimum essential media (EMEM) supplemented with 10% fetal bovine serum (FBS) and penicillin-streptomycin at 37 °C in 5% CO2. For BacMam transduction, cells were resuspended in media at a density of 52,000 cells per 100 μL. […] For each experiment 4.24 × 10^8 viral genes of arrestin virus were added to each well. For multiplex experiments, 4.79 × 10^8 viral genes of the Red DAG sensor or 6.18 × 10^8. Viral genes of the Red cADDis (cAMP) sensor were added with the arrestin sensor. For experiments with the R-GECO sensor, 8.46 × 10^8 viral genes were added to each well. The viruses carrying the AT1 and V2 receptors were added such that 2.12 × 10^8 and 3.04 × 10^8 viral genes went into each well, respectively. For the β2-adrenoceptor experiment, 4.28 × 10^8 viral genes for the receptor and 2.13 × 10^8 viral genes of GPCR kinase 2 were added to each well. The cell/transduction mixture was then seeded into 96-well plates and incubated for ~24 hours at 37 °C in 5% CO2. Thirty minutes prior to fluorescence plate reader or imaging experiments, the media in each well was replaced with 150 μL of Dulbecco’s phosphate buffered saline (DPBS) supplemented with Ca^2+ (0.9 mM) and Mg^2+ (0.5 mM).
Fluorescence plate reader experiments were performed on the BioTek Synergy Mx (BioTek, Winooski, VT) and BMG CLARIOstar (BMG Labtech, Cary, NC) in 96 well plates.

[4] = target: angiotensin AT1 receptor (UniProt P30556)
[5] = target: angiotensin AT1 receptor (UniProt P30556); assay: conformation-sensitive fluorescent arrestin biosensor in live cells; as a6, 32 μM SII
[6] = target: angiotensin AT1 receptor (UniProt P30556); assay: conformation-sensitive fluorescent arrestin biosensor in live cells; as a6, 32 μM TRV120026
[7] = target: angiotensin AT1 receptor (UniProt P30556); assay: conformation-sensitive fluorescent arrestin biosensor in live cells; as a6, 32 μM TRV120045
[8] = target: angiotensin AT1 receptor (UniProt P30556); assay: conformation-sensitive fluorescent arrestin biosensor in live cells; as a6, 32 μM TRV120055
[9] = target: angiotensin AT1 receptor (UniProt P30556); assay: conformation-sensitive fluorescent arrestin biosensor in live cells; as a1, concentration-response with the agonist SII
[10] = target: angiotensin AT1 receptor (UniProt P30556); assay: conformation-sensitive fluorescent arrestin biosensor in live cells; as a1, concentration-response with the agonist TRV026 (TRV120026)
[11] = target: angiotensin AT1 receptor (UniProt P30556); assay: conformation-sensitive fluorescent arrestin biosensor in live cells; as a1, concentration-response with the agonist TRV045 (TRV120045)
[12] = target: angiotensin AT1 receptor (UniProt P30556); assay: conformation-sensitive fluorescent arrestin biosensor in live cells; as a1, concentration-response with the agonist TRV055 (TRV120055)
[13] = target: angiotensin AT1 receptor (UniProt P30556); assay: conformation-sensitive fluorescent arrestin biosensor in live cells; HEK 293 T cells with sensor and AT1 receptor; AngII 10 nM-32 μM; time courses fit to the association exponential, Plateau x kobs against concentration fit to a sigmoid, kτ is its top; DPBS with Ca2+ and Mg2+; Biotek Synergy Mx
[14] = target: angiotensin AT1 receptor (UniProt P30556); assay: conformation-sensitive fluorescent arrestin biosensor in live cells; HEK 293 T cells with sensor and AT1 receptor; single maximally-stimulating concentration, 32 μM AngII; time course fit to the association exponential, kτ = Plateau x kobs; ΔF/F normalised to baseline; Biotek Synergy Mx (Fig. 5a) or BMG CLARIOstar (Fig. 1b)
[15] = tested on: parathyroid hormone 1 (PTH1) receptor; conditions: endosomal compartment; cited from earlier work
Text: The kinetics/dynamics of G-protein-coupled receptor (GPCR) signaling is of increasing interest in elaborating the biology and therapeutic potential of these receptors[1]–[3]. The time frame of GPCR signal transduction is dependent on the signaling pathway, regulation of signaling mechanism, and location of the receptor in the cell (spatiotemporal signaling). Temporal dynamics of signaling are being elucidated and applied to develop new therapeutics. For example, the parathyroid hormone 1 (PTH1) receptor can signal persistently over time after partitioning into the endosomal compartment. Thi ...

Compound: CC[C@H](C)[C@H](NC(=O)[C@@H]1CCCN1C(=O)[C@H](Cc1c[nH]cn1)NC(=O)[C@@H](NC(=O)[C@@H](NC(=O)[C@@H](NC(=O)[C@H](CCCNC(=N)N)NC(=O)CNC)C(C)C)[C@@H](C)CC)[C@@H](C)CC)C(=O)O [SII, [sarcosine^1, Ile^4, Ile^8]AngII]
- kτ (% AngII), arrestin (single concentration) ([1]; 32 μM, mean kτ of ligand divided by that for AngII): 49 % AngII
- Emax, 1 minute time point ([1]; 1 min (rise phase), sigmoid fit, representative experiments): 64 % Ang II
- Emax, 20 minute time point ([1]; 20 min (plateau), sigmoid fit, representative experiments): 88 % Ang II
- EC50 ([1]; EC50, 1 minute time point, 1 min (rise phase), sigmoid fit, representative experiments): 0.62 µM
- EC50 ([1]; EC50, 20 minute time point, 20 min (plateau), sigmoid fit, representative experiments): 0.21 µM
- Kd ([1]; calculated from the mean pKA value, L50 of Plateau × kobs vs concentration curve, read-out: KA): 1.1 µM
- kτ (% AngII), arrestin (concentration-response) ([1]; concentration-response method, mean kτ of ligand divided by that for AngII): 48 % AngII
- Emax, kinetic model initial rate ([1]; concentration-response of the initial rate, repeated from Table 1 in Supplementary Table S2): 48 % Ang II
- kτ (% AngII), calcium [2]: 12 % AngII

Compound: CC(C)NCC(O)c1ccc(O)c(O)c1 (stereo not shown) [isoproterenol]
- ΔF/F, β2-adrenoceptor [3]: 0.84

Compound: [sarcosine^1, Ile^4, Ile^8]AngII (peptide)
- KA from the operational model fit of the arrestin sensor concentration-response at the single time point 1 min [4]: 1200 nM
- KA from the operational model fit of the arrestin sensor concentration-response at the single time point 20 min [4]: 530 nM

Compound: arrestin-3 (β-arrestin2) fluorescent biosensor incorporating mNeonGreen (from UniProt P32121 1-409)
- kτ (initial rate of arrestin recruitment) with 32 μM SII [5]: 0.2 NFU.min^-1
- kτ (initial rate of arrestin recruitment) with 32 μM TRV120026 [6]: 0.25 NFU.min^-1
- kτ (initial rate of arrestin recruitment) with 32 μM TRV120045 [7]: 0.38 NFU.min^-1
- kτ (initial rate of arrestin recruitment) with 32 μM TRV120055 [8]: 0.37 NFU.min^-1
- kτ (initial rate of arrestin recruitment) with SII [9]: 0.2 NFU.min^-1
- kτ (initial rate of arrestin recruitment) with TRV026 [10]: 0.25 NFU.min^-1
- kτ (initial rate of arrestin recruitment) with TRV045 [11]: 0.36 NFU.min^-1
- kτ (initial rate of arrestin recruitment) with TRV055 [12]: 0.38 NFU.min^-1
- kτ (initial rate of arrestin recruitment) with AngII [13]: 0.41 NFU.min^-1
- kτ (initial rate of arrestin recruitment) with 32 μM AngII [14]: 0.4 NFU.min^-1
- t1/2 of arrestin recruitment (0.693/kobs) with 32 μM AngII [14]: 45 s
- ΔF/F (fluorescence after agonist divided by baseline) with 32 µM AngII [14]: 0.56

Compound: parathyroid hormone [PTH]
- persistent signaling (in words) [15]: persistent signaling
